Experiment [1] concerns the target c-JO4 (cGMP-compliant JO4 junction opener protein) (human adenovirus serotype 3). The experiment is described as follows: SDS-PAGE, not boiled and not reduced; 4-15% gradient gel, running buffer with 0.1% SDS, 1 ug protein, sample not boiled and not reduced.
For experiment [2] the target is unchanged. The experiment is described as follows: SEC + other: negative-stain electron microscopy; SEC on Superdex 200 Increase 10/300 in TBS, 1 mL/min; EM with 1% sodium silicotungstate pH 7.0, protein at 0.1 mg/ml.

Broadly, the stoichiometry N is a count of units in the complex or per binding partner. In the case of “c-JO4 (cGMP-compliant JO4 junction opener protein) (domain or fragment)”, the stoichiometry N in experiment [1] was found to be 3; in experiment [2], 6.
